# Reference: US20230053214
# Target: human tau (441 amino acids), wild-type
protein,measurement,value
human wild-type p38γ (HA-tagged) (protein) MSSPPPARSGFYRQEVTKTAWEVRAVYRDLQPVGSGAYGAVCSAVDGRTGAKVAIKKLYRPFQSELFAKRAYRELRLLKHMRHENVIGLLDVFTPDETLDDFTDFYLVMPFMGTDLGKLMKHEKLGEDRIQFLVYQMLKGLRYIHAAGIIHRDLKPGNLAVNEDCELKILDFGLARQADSEMTGYVVTRWYRAPEVILNWMRYTQTVDIWSVGCIMAEMITGKTLFKGSDHLDQLKEIMKVTGTPPAEFVQRLQSDEAKNYMKGLPELEKKDFASILTNASPLAVNLLEKMLVLDAEQRVTAGEALAHPYFESLHDTEDEPQVQKYDDSFDDVDRTLDEWKRVTYKEVLSFKPPRQLGARVSKETPL,in vitro kinase assay with tau variants mutated to alanine,"confirmed site-specific phosphorylation of S199, T205, S396 and S404 by p38γ"
same,"in vitro kinase assay, immunoblotting with phosphorylation site specific antibodies","showed phosphorylation of tau at S199, T205, S396 and S404, but not other sites tested by p38γ"
